Laboratory results published in article PMC9482650, “Quantitative fragmentomics allow affinity mapping of interactomes” (Nature Communications, 2022).

Tests used:
Assay in all cases: holdup assay
Design in all cases: key: below the threshold = too weak to quantify, mostly under pKd 3.1 to 4
AHNAK1, Q09666 = biological target: AHNAK1, Q09666
APBA2_1, Q99767 = biological target: T1, APBA2_1, Q99767
T1 sequence (Q99767 563-664, limits assumed, looked up): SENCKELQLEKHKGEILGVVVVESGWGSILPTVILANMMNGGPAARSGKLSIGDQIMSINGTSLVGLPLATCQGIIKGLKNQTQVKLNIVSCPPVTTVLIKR

DFNB31_1, Q9P202 = biological target: T2, DFNB31_1, Q9P202
T2 sequence (Q9P202 135-233, limits assumed, looked up): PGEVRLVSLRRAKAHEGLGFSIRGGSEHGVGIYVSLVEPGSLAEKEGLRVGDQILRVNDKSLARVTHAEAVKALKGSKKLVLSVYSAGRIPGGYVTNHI

DLG1_1, Q12959 = biological target: DLG1_1, Q12959
DLG1_2, Q12959 = biological target: DLG1_2, Q12959
DLG2_3, Q15700 = biological target: DLG2_3, Q15700
DLG3_2, Q92796 = biological target: T3, DLG3_2, Q92796
T3 sequence (Q92796 221-321, limits assumed, looked up): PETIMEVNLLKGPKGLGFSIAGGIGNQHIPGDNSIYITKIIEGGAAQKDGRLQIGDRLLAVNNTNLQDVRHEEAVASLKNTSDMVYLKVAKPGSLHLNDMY

GORASP1, Q9BQQ3 = biological target: GORASP1, Q9BQQ3
Sequence of GORASP1, Q9BQQ3 (Q9BQQ3 1-208): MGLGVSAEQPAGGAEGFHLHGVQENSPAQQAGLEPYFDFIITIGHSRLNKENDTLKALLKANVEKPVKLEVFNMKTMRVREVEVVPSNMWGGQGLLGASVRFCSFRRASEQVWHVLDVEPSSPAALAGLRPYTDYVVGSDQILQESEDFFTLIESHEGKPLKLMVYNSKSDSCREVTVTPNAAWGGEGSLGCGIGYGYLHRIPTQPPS

GRIP1_3, Q9Y3R0 = biological target: T4, GRIP1_3, Q9Y3R0
T4 sequence (Q9Y3R0 247-346, limits assumed, looked up): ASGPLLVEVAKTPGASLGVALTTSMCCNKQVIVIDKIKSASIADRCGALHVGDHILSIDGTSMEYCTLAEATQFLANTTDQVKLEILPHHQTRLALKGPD

GRIP1_4, Q9Y3R0 = biological target: T5, GRIP1_4, Q9Y3R0
T5 sequence (Q9Y3R0 467-571, limits assumed, looked up): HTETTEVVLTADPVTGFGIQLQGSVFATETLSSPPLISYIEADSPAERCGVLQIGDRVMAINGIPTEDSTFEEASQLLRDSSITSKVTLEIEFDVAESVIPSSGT

GRIP1_7, Q9Y3R0 = biological target: T6, GRIP1_7, Q9Y3R0
T6 sequence (Q9Y3R0 999-1096, limits assumed, looked up): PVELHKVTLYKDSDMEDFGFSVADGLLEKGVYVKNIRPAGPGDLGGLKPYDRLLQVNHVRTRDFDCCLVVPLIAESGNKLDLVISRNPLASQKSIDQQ

HTRA3, P83110 = biological target: T7, HTRA3, P83110
T7 sequence (P83110 354-453, limits assumed, looked up): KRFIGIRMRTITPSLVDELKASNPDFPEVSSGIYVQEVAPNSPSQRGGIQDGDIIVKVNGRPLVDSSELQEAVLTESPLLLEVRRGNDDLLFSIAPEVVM

Inadl_1, Q8NI35 = biological target: Inadl_1, Q8NI35
Sequence of Inadl_1, Q8NI35 (Q8NI35 113-229): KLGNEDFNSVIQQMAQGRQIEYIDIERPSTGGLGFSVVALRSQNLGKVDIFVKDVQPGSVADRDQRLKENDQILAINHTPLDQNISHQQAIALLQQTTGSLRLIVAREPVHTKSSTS

Inadl_10, Q8NI35 = biological target: Inadl_10, Q8NI35
Sequence of Inadl_10, Q8NI35 (Q8NI35 1673-1763): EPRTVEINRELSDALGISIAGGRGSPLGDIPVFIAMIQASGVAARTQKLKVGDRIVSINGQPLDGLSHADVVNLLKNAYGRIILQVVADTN

Inadl_5, Q8NI35 = biological target: Inadl_5, Q8NI35
Sequence of Inadl_5, Q8NI35 (Q8NI35 673-780): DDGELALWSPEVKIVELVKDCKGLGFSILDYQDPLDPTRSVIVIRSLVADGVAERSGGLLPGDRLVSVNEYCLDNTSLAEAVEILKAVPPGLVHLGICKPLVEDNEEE

Inadl_9, Q8NI35 = biological target: Inadl_9, Q8NI35
Sequence of Inadl_9, Q8NI35 (Q8NI35 1530-1615): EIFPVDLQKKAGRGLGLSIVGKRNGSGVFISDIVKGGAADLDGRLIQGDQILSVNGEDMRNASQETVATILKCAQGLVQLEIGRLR

LIN7B, Q9HAP6 = biological target: T8, LIN7B, Q9HAP6
T8 sequence (Q9HAP6 88-185, limits assumed, looked up): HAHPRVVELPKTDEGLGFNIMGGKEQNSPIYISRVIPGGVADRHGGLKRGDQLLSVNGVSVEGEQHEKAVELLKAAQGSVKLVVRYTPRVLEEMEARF

LNX1_3, Q8TBB1 = biological target: LNX1_3, Q8TBB1
Sequence of LNX1_3, Q8TBB1 (Q8TBB1 500-596): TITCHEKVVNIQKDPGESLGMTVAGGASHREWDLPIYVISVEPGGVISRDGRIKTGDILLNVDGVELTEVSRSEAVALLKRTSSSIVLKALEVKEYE

MPP7, Q5T2T1 = biological target: T9, MPP7, Q5T2T1
T9 sequence (Q5T2T1 134-230, limits assumed, looked up): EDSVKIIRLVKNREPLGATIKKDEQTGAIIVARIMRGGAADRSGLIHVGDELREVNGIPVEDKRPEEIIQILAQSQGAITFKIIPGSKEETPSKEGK

NHERF4_1, Q86UT5-2 = biological target: NHERF4_1, Q86UT5-2
Sequence of NHERF4_1, Q86UT5-2 (Q86UT5 other isoform, or with tags, fused parts or gaps): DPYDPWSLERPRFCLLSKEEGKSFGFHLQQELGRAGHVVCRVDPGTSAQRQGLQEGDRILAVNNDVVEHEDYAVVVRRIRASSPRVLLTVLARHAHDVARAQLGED

PCLO, Q9Y6V0 = biological target: T10, PCLO, Q9Y6V0
T10 sequence (Q9Y6V0 4491-4600, limits assumed, looked up): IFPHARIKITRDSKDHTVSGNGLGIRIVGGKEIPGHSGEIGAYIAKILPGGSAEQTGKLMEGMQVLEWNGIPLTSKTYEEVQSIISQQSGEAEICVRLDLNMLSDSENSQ

PDZD2_2, O15018 = biological target: T11, PDZD2_2, O15018
T11 sequence (O15018 329-429, limits assumed, looked up): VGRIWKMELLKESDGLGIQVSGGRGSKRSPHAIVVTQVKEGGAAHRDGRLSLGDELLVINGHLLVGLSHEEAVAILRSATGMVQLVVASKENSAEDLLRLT

PDZRN4_1, Q6ZMN7 = biological target: PDZRN4_1, Q6ZMN7
Sequence of PDZRN4_1, Q6ZMN7 (Q6ZMN7 213-318): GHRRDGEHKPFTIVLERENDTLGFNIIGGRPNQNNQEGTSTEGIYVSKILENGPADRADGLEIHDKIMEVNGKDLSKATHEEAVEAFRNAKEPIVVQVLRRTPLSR

PICK1, Q9NRD5 = biological target: PICK1, Q9NRD5
Sequence of PICK1, Q9NRD5 (Q9NRD5 17-115): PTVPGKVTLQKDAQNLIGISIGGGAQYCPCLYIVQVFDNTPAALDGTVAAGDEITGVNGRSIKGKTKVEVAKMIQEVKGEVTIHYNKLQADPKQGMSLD

SCRIB_3, Q14160 = biological target: SCRIB_3, Q14160
Sequence of SCRIB_3, Q14160 (Q14160 999-1103): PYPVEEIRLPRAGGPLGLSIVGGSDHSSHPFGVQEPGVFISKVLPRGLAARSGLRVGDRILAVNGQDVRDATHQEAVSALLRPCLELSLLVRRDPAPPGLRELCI

SNTB1, Q13884 = biological target: T12, SNTB1, Q13884
T12 sequence (Q13884 107-205, limits assumed, looked up): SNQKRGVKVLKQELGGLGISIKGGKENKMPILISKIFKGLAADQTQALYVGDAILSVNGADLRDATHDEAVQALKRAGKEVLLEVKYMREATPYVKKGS

[1] = plain residues with an end cap or a label only (N-terminal biotin on a linker: ahx)
[2] = plain residues with an end cap or a label only (N-terminal biotin on a linker: ttds)

Sequence of AHNAK1, Q09666 (Q09666 4-100): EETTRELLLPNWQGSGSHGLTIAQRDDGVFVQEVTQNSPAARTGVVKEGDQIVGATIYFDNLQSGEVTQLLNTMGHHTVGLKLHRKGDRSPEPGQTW

Binder: HNAFLSVTTV [PDZRN4, Q6ZMN7]
- pKd (AHNAK1, Q09666; [1]): 3.7
- pKd (APBA2_1, Q99767; [1]): 3.69
- pKd (DFNB31_1, Q9P202; [1]): below the threshold
- pKd (DLG1_1, Q12959; [1]): 3.54
- pKd (DLG1_2, Q12959; [1]): 3.52
- pKd (DLG2_3, Q15700; [1]): 3.53
- pKd (DLG3_2, Q92796; [1]): 3.61
- pKd (GORASP1, Q9BQQ3; [1]): below the threshold
- pKd (GRIP1_3, Q9Y3R0; [1]): below the threshold
- pKd (GRIP1_4, Q9Y3R0; [1]): below the threshold
- pKd (GRIP1_7, Q9Y3R0; [1]): below the threshold
- pKd (HTRA3, P83110; [1]): below the threshold
- pKd (Inadl_1, Q8NI35; [1]): below the threshold
- pKd (Inadl_10, Q8NI35; [1]): 3.57
- pKd (Inadl_5, Q8NI35; [1]): below the threshold
- pKd (Inadl_9, Q8NI35; [1]): below the threshold
- pKd (LIN7B, Q9HAP6; [1]): below the threshold
- pKd (LNX1_3, Q8TBB1; [1]): below the threshold
- pKd (MPP7, Q5T2T1; [1]): below the threshold
- pKd (NHERF4_1, Q86UT5-2; [1]): 3.69
- pKd (PCLO, Q9Y6V0; [1]): below the threshold
- pKd (PDZD2_2, O15018; [1]): 3.49
- pKd (PDZRN4_1, Q6ZMN7; [1]): 3.5
- pKd (PICK1, Q9NRD5; [1]): below the threshold
- pKd (SCRIB_3, Q14160; [1]): below the threshold
- pKd (SNTB1, Q13884; [1]): 3.54

Binder: RLQRRRETQV [HPV18-E6, P06463]
- pKd (AHNAK1, Q09666; [2]): below the threshold
- pKd (APBA2_1, Q99767; [2]): below the threshold
- pKd (DFNB31_1, Q9P202; [2]): below the threshold
- pKd (DLG1_1, Q12959; [2]): 5.26
- pKd (DLG1_2, Q12959; [2]): 5.78
- pKd (DLG2_3, Q15700; [2]): 5.06
- pKd (DLG3_2, Q92796; [2]): 5.46
- pKd (GORASP1, Q9BQQ3; [2]): below the threshold
- pKd (GRIP1_3, Q9Y3R0; [2]): below the threshold
- pKd (GRIP1_4, Q9Y3R0; [2]): below the threshold
- pKd (GRIP1_7, Q9Y3R0; [2]): below the threshold
- pKd (HTRA3, P83110; [2]): below the threshold
- pKd (Inadl_1, Q8NI35; [2]): below the threshold
- pKd (Inadl_10, Q8NI35; [2]): below the threshold
- pKd (Inadl_5, Q8NI35; [2]): 3.52
- pKd (Inadl_9, Q8NI35; [2]): below the threshold
- pKd (LIN7B, Q9HAP6; [2]): 3.58
- pKd (LNX1_3, Q8TBB1; [2]): below the threshold
- pKd (MPP7, Q5T2T1; [2]): below the threshold
- pKd (NHERF4_1, Q86UT5-2; [2]): below the threshold
- pKd (PCLO, Q9Y6V0; [2]): below the threshold
- pKd (PDZD2_2, O15018; [2]): 3.36
- pKd (PDZRN4_1, Q6ZMN7; [2]): 4.48
- pKd (PICK1, Q9NRD5; [2]): below the threshold
- pKd (SCRIB_3, Q14160; [2]): 4.84
- pKd (SNTB1, Q13884; [2]): 5.23

Binder: GYDWGPATDL [TJP3, O95049]
- pKd (AHNAK1, Q09666; [1]): below the threshold
- pKd (APBA2_1, Q99767; [1]): below the threshold
- pKd (DFNB31_1, Q9P202; [1]): 4.11
- pKd (DLG1_1, Q12959; [1]): below the threshold
- pKd (DLG1_2, Q12959; [1]): 3.61
- pKd (DLG2_3, Q15700; [1]): 3.52
- pKd (DLG3_2, Q92796; [1]): 3.78
- pKd (GORASP1, Q9BQQ3; [1]): below the threshold
- pKd (GRIP1_3, Q9Y3R0; [1]): below the threshold
- pKd (GRIP1_4, Q9Y3R0; [1]): below the threshold
- pKd (GRIP1_7, Q9Y3R0; [1]): below the threshold
- pKd (HTRA3, P83110; [1]): below the threshold
- pKd (Inadl_1, Q8NI35; [1]): below the threshold
- pKd (Inadl_10, Q8NI35; [1]): 3.62
- pKd (Inadl_5, Q8NI35; [1]): below the threshold
- pKd (Inadl_9, Q8NI35; [1]): 3.6
- pKd (LIN7B, Q9HAP6; [1]): below the threshold
- pKd (LNX1_3, Q8TBB1; [1]): below the threshold
- pKd (MPP7, Q5T2T1; [1]): below the threshold
- pKd (NHERF4_1, Q86UT5-2; [1]): 3.72
- pKd (PCLO, Q9Y6V0; [1]): below the threshold
- pKd (PDZD2_2, O15018; [1]): 4.46
- pKd (PDZRN4_1, Q6ZMN7; [1]): below the threshold
- pKd (PICK1, Q9NRD5; [1]): below the threshold
- pKd (SCRIB_3, Q14160; [1]): 4.93
- pKd (SNTB1, Q13884; [1]): 4.08
